The values below are quoted from earlier work in paper PMC3362950.

A word on the Kd: it is the free concentration of one partner at which half of the binding sites on the other are occupied at equilibrium, for simple one-to-one binding.

The data set deals with Kv1.3 (UniProt P22001).
Sequence of UniProt P22001 (P22001 whole entry): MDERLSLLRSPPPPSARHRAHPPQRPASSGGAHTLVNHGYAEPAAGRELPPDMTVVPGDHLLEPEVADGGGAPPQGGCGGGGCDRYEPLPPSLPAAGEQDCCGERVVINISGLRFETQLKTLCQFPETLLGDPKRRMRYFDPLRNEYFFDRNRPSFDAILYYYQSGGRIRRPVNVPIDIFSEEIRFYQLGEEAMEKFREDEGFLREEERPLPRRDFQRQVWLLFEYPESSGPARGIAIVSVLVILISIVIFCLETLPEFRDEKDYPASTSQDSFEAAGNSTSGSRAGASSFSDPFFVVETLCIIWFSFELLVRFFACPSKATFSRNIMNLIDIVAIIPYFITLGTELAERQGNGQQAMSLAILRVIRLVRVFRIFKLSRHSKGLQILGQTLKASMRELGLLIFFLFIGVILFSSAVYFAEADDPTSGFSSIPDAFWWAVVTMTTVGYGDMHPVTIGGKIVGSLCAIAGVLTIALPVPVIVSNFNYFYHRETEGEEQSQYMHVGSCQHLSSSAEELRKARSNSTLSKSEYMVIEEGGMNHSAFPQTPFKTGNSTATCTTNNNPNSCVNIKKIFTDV

As for KTX (from UniProt P24662), the Kd was 10 pM.
